Measurements as given in publication PMC1635730, “Mesothelin-MUC16 binding is a high affinity, N-glycan dependent interaction that facilitates peritoneal metastasis of ovarian tumors” (Molecular Cancer, 2006).
Values joined by “and” are separate entries in the source; they are usually repeats but may differ in a detail not shown here. Equal entries are not always repeated.

Molecular target: T1, MUC16 expressed on the surface of the ovarian tumor cell line OVCAR-3 (human (endogenous in OVCAR-3), UniProt Q8WXI7 1-14507)
T1 construct: also called cell surface MUC16; MUC16 on OVCAR-3 cells; source: endogenous, on OVCAR-3 cells and the control subline #12
Experiment: flow cytometry on cells; OVCAR-3 cells with increasing amounts of meso-Fc for 1 h; mean fluorescence, non-linear regression (GraphPad Prism); apparent Kd
Settings: one partner purified

Kd: 5 nM and 5 to 10 nM
B1: recombinant mesothelin tagged with the Fc fragment of rabbit IgG (Fc fusion, human, UniProt Q13421 296-598, looked up)
chain: EVEKTACPSGKKAREIDESLIFYKKWELEACVDAALLATQMDRVNAIPFTYEQLDVLKHKLDELYPQGYPESVIQHLGYLFLKMSPEDIRKWNVTSLETLKALLEVNKGHEMSPQVATLIDRFVKGRGQLDKDTLDTLTAFYPGYLCSLSPEELSSVPPSSIWAVRPQDLDTCDPRQLDVLYPKARLAFQNMNGSEYFVKIQSFLGGAPTEDLKALSQQNVSMDLATFMKLRTDAVLPLTVAEVQKLLGPHVEGLKAEERHRPVRDWILRQRQDDLDTLGLGLQGGIPNGYLVLDLSMQEALS
notes: mesothelin, human, extracellular domain (the 40 kDa fragment of the 70 kDa precursor); GenBank AY743922; Modified pSecTag2 vector containing rabbit IgG Fc; Glycosylated (made in mammalian cells); also called meso-Fc; mesothelin-Fc; source: HEK 293T, transfected, harvested from the culture supernatant, purified (Hi-trap protein A column)
